Tests used:
[1] = target: T1, Human cytomegalovirus glycoprotein B (strain AD169) on infectious virions (Human cytomegalovirus, strain AD169, UniProt P06473); experiment: cell-based or functional assay
[2] = target: glycoprotein B of eight Japanese clinical isolates (2009-889, I88-55, I144-44, H12-42, H12-43, H1-10, H1-15, MDU-1) (human cytomegalovirus)
[3] = target: glycoprotein B of 42 Japanese clinical isolates (39 tested in MRC-5, 24 in ARPE-19 cells) (human cytomegalovirus)
[4] = target: T2, Recombinant AD-1 protein from HCMV gB (strain AD169, amino acids 541-658), fused with glutathione … (Human cytomegalovirus, strain AD169, UniProt P06473); experiment: SPR; Biacore T200; EV2038 (0.33 μg/mL) captured by anti-IgG (Fc) antibody on a CM5 chip; recombinant AD-1 injected as analyte; 1:1 binding model; settings: both partners purified
T2 construct: antigenic domain 1 (AD-1) of human cytomegalovirus glycoprotein B, strain AD169, amino acids 541-658, UniProtKB P06473; The printed size of 40.7 kDa fits the fusion with GST still on it; no cleavage is told; Vector pGEX4T; also called recombinant antigenic domain 1; source: E. coli BL21 (DE3), solubilized with 0.5% sarkosyl, purified (SDS-PAGE, electroelution, dialysis against PBS)
T2 sequence (P06473 541-658): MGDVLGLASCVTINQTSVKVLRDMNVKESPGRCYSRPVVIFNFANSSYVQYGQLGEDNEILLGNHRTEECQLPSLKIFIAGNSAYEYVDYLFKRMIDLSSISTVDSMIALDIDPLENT

[5] = target: T1, Human cytomegalovirus glycoprotein B …; experiment: SPR; Biacore T200; infectious virions (strain AD169, 1.6 × 10^8 plaque-forming units/mL) trapped by captured MSL-109 (anti-gH/gL); EV2038 injected as analyte; 1:1 binding model; settings: one partner purified

T1 sequence (P06473 32-906): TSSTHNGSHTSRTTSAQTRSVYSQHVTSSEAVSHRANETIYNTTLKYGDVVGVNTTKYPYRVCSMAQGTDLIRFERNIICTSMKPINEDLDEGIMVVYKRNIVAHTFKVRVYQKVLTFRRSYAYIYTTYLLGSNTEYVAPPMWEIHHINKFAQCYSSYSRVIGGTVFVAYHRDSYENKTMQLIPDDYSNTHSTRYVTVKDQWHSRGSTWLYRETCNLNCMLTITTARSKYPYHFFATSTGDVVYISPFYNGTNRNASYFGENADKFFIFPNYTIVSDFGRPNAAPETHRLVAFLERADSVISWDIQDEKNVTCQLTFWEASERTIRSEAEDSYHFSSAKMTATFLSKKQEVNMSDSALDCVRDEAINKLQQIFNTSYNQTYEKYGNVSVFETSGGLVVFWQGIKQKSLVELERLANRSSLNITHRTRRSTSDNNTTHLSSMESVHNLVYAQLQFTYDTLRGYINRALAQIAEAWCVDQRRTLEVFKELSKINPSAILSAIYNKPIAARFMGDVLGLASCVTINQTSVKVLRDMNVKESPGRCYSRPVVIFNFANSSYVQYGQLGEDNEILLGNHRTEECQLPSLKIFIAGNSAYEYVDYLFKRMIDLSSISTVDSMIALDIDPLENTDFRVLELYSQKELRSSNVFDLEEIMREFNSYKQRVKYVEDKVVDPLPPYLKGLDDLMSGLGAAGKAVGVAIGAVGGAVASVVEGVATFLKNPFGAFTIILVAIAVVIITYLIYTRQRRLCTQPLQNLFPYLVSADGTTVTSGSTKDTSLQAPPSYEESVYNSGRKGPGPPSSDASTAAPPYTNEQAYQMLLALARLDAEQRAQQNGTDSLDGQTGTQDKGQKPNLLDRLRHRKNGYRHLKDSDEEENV

B1: EV2038 (IgG1 lambda), fully human neutralizing monoclonal antibody (antibody, V domains shown)
VH: QVQLQQWGAGLLKPSETLSLTCAVYGGSFSGYYWGWIRQPPGKGLEWIGEINHSGSANSNPSLKSRVTMSVDTSKNQFSLKVSSVTAADTAVYFCARVTRDLEWIPGDYYMDVWGKGTTVTVSS
VL: QSVLTQPPSASGTPGQRVSISCSGSLSNIGTNYVYWYQQLPGTAPKLLIFKNNQRPSGVPDRFSGSKSGTSASLAISGLRSEDEADYYCAAWDDSLNGYVFGTGTKVTVL
notes: heavy chain framework 1: only the Kabat CDRs are printed; heavy chain CDR1 (Kabat); heavy chain CDR2 (Kabat); heavy chain CDR3 (Kabat); constant region of human IgG1 heavy chain; light chain framework 1: only the Kabat CDRs are printed; light chain CDR1 (Kabat); light chain CDR2 (Kabat); light chain CDR3 (Kabat); constant region of a human lambda light chain; IgG1 lambda; the frameworks are not; …
[1]
  IC50 of neutralisation of HCMV infection (strain AD169) after two passages of virus grown with mAbs, preliminary study: 0.08 to 0.18 µg/mL
  IC50 of neutralisation of HCMV infection (strain AD169) in MRC-5 cells, without anti-CMV agents: ~0.1 µg/mL
[2]
  IC50 of inhibition of viral cell-to-cell spread, focus expansion assay, eight clinical isolates in ARPE-19 cells: 1 to 3.1 µg/mL
  IC90 of inhibition of viral cell-to-cell spread, focus expansion assay, eight clinical isolates in ARPE-19 cells: 13 to 19 µg/mL
[3]
  IC50 of neutralisation of HCMV infection, plaque reduction assay, 24 clinical isolates in ARPE-19 cells: 0.013 to 0.105 µg/mL
  IC50 of neutralisation of HCMV infection, plaque reduction assay, 39 clinical isolates in MRC-5 cells: 0.013 to 0.103 µg/mL
  IC90 of neutralisation of HCMV infection, plaque reduction assay, 24 clinical isolates in ARPE-19 cells: 0.208 to 1.03 µg/mL
  IC90 of neutralisation of HCMV infection, plaque reduction assay, 39 clinical isolates in MRC-5 cells: 0.215 to 0.901 µg/mL
[4]
  Kd: 5.73 nM
  koff: 0.000279 s⁻¹
[5]
  Kd: 0.224 nM
  koff: 0.00113 s⁻¹

Source: article PMC10187921, “A fully human neutralizing monoclonal antibody targeting a highly conserved epitope of the human cytomegalovirus glycoprotein B” (PLOS ONE, 2023)
